Measured values taken from article PMC9935832, “Calcium-dependent protein kinase CDPK16 phosphorylates serine-856 of glutamate receptor-like GLR3.6 protein leading to salt-responsive root growth in Arabidopsis^#” (Frontiers in Plant Science, 2023).

Biological target: T1, 6xHis-14-3-3ω (Arabidopsis, UniProt Q01525 1-259)
T1 construct: End of the His tag read from the printed name 6xHis-14-3-3ω; Vector map in Appendix 1B; construct as in Chen et al. (2018); also called recombinant 6xHis-14-3-3ω; source: E. coli BL21, purified (Ni-NTA agarose); not shown: 6xHis, N-terminal, kept
T1 sequence (looked up): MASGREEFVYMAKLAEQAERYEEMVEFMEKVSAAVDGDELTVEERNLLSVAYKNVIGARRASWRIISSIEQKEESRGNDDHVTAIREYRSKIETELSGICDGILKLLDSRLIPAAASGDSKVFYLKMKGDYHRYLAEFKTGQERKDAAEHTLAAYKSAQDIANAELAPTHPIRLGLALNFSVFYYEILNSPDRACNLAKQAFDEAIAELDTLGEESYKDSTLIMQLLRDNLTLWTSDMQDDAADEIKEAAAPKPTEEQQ
Assay: pull-down; 6xHis-14-3-3ω and GST-fused GLR3.6 peptides (50 μg each) mixed with Ni-NTA agarose, 4°C, 2 h; western blot with α-His and α-GST
Conditions: both partners purified

B1: GST-GLR3.6 (GST-fused peptide fragment of GLR3.6, amino acids 854-865) (peptide)
chain: EGSIRRRSSPSA
notes: cloned by AscI and NotI into the GST-NRV vector; End of GST read from the printed name GST-GLR3.6; The vector-only control gives GST-RFP-Strep tag II, so the peptide fusion probably carries RFP and Strep tag II too; vector map in Appendix 1A; design as in Curran et al. (2011); also called GLR3.6 peptide fragment; source: E. coli BL21, purified (glutathione resin); not shown: GST, N-terminal, kept
binding result: binds

B2: GST-GLR3.6-S856A (GST-fused peptide fragment) (peptide, UniProt Q84W41 854-865, looked up)
chain: EGAIRRRSSPSA
notes: End of GST read from the printed name; also called GLR3.6-S856A single mutant; source: E. coli BL21, purified (glutathione resin); not shown: GST, N-terminal, kept
binding result: binds
